Measured values from paper PMC2830194.

What was measured:
[1] = molecular target: FlhA (Cpn0363), putative flagellar integral membrane protein, full length, bacterial-2-hybrid fusion (C. pneumoniae); assay: two-hybrid; bacterial-2-hybrid in E. coli DHP-1, proteins fused to adenylate cyclase fragments from pT18 and pT25; β-galactosidase activity, in triplicate; cut off for a positive interaction 577 units (table footnote; 677 in the methods)
[2] = molecular target: CdsL, putative T3S ATPase tethering protein, bacterial-2-hybrid fusion (C. pneumoniae); assay: as above
[3] = molecular target: CopN, putative T3S plug protein, bacterial-2-hybrid fusion (C. pneumoniae); assay: two-hybrid
[4] = molecular target: Full length His-Cpn0859 (C. pneumoniae); assay: cross-linking
[5] = molecular target: CdsD-FHA-2, bacterial-2-hybrid fusion (positive control) (C. pneumoniae); assay: two-hybrid; bacterial-2-hybrid in E. coli DHP-1, proteins fused to adenylate cyclase fragments from pT18 and pT25; β-galactosidase activity, in triplicate; cut off for a positive interaction 577 units (table footnote; 677 in the methods)

Substance: CdsL, putative T3S ATPase tethering protein, bacterial-2-hybrid fusion (natural protein)
- β-galactosidase activity (units/mg bacteria) [1]: 832

Substance: Cpn0322 (putative CdsU, YscU ortholog), bacterial-2-hybrid fusion (natural protein)
- β-galactosidase activity (units/mg bacteria) [1]: 780

Substance: FliF (Cpn0860), putative flagellar MS ring protein, full length, bacterial-2-hybrid fusion (natural protein)
- β-galactosidase activity (units/mg bacteria) [1]: 847

Substance: FliI (Cpn0858), putative flagellar ATPase, bacterial-2-hybrid fusion (enzyme)
- β-galactosidase activity (units/mg bacteria) [1]: 943
- β-galactosidase activity (units/mg bacteria) [2]: 874
- β-galactosidase activity (units/mg bacteria) [3]: 943

Substance: Full length His-Cpn0859 (natural protein)
- stoichiometry N [4]: 2

Substance: PknD, bacterial-2-hybrid fusion (positive control) (natural protein)
- β-galactosidase activity (units/mg bacteria) [5]: 996
